The text below walks through data of ChEMBL document CHEMBL5620400, “Design, synthesis, antiviral evaluation, and In silico studies of acrylamides targeting nsP2 from Chikungunya virus” (Eur J Med Chem, 2023).

What is called Km is the substrate concentration at which the rate is half of its maximum.

Activity calls are given as the source filed them. The calls are words filed in the database; no cut-off is given here.

For one data set, the system named is Sindbis virus. Briefly: Antiviral activity against SINV infected african green monkey Vero cells assessed as inhibition of virus induced cytopathic effect at 100 uM measured after 48 hrs by microscopic imaging analysis. In kind it is functional, organism-based. In general terms: Protection from cytopathic effect is a common read-out in antiviral testing.
The test system of data set [1] is O=C(/C=C/c1ccc(C(F)(F)F)cc1)Nc1ccccc1. Briefly: (§1) Binding affinity to CHIKV nsP2 assessed as Km by measuring fluorescence by multimode microplate reader. The conditions noted are these: Chikungunya virus.
The test system of data set [2] is O=C(/C=C/c1ccc(Cl)cc1Cl)Nc1ccccc1. The data set is described as §1. The conditions noted are these: Chikungunya virus.
For data set [3], the system named is COc1ccccc1/C=C/C(=O)Nc1ccccc1. Described as §1. The conditions noted are these: Chikungunya virus.
Data set [4] relates to O=C(/C=C/c1ccc(Br)cc1)Nc1ccccc1. Described as §1. Conditions: Chikungunya virus.
The test system of data set [5] is O=C(/C=C/c1ccc(C(F)(F)F)cc1)Nc1ccccc1. Briefly: (§2) Binding affinity to CHIKV nsP2 assessed as Vmax (at tested concentration) by measuring fluorescence by Lineweaver-Burk plot. Conditions: Chikungunya virus.
Data set [6] relates to O=C(/C=C/c1ccc(Cl)cc1Cl)Nc1ccccc1. The data set is described as §2. Conditions: Chikungunya virus.
The test system of data set [7] is COc1ccccc1/C=C/C(=O)Nc1ccccc1. Described as §2. The conditions noted are these: Chikungunya virus.
Data set [8] has as its system O=C(/C=C/c1ccc(Br)cc1)Nc1ccccc1. Described as §2. The conditions noted are these: Chikungunya virus.
For data set [9], the system named is O=C(/C=C/c1ccc(C(F)(F)F)cc1)Nc1ccccc1. Nature of the data set: (§3) Binding affinity to CHIKV nsP2 assessed as Vmax (at I = 0) by measuring fluorescence by Lineweaver-Burk plot. Conditions: Chikungunya virus.
The test system of data set [10] is O=C(/C=C/c1ccc(Cl)cc1Cl)Nc1ccccc1. The data set is described as §3. The conditions noted are these: Chikungunya virus.
Data set [11] concerns COc1ccccc1/C=C/C(=O)Nc1ccccc1. The description is as §3. The conditions noted are these: Chikungunya virus.
Data set [12] relates to O=C(/C=C/c1ccc(Br)cc1)Nc1ccccc1. The data set is described as §3. Conditions: Chikungunya virus.

As for `COc1ccccc1/C=C/C(=O)Nc1ccccc1`, the outcome with Sindbis virus was Active.
On to `O=C(/C=C/c1ccc(Br)cc1)Nc1ccccc1`, for which the result in the data set on Sindbis virus was Active.
Turning to `O=C(/C=C/c1ccc(C(F)(F)F)cc1)Nc1ccccc1`, the outcome with Sindbis virus was Active.
Same read-out and setting: the result for `O=C(/C=C/c1ccc(Cl)cc1Cl)Nc1ccccc1` reads “Active”.
For the molecule “Polyprotein P1234 (Chikungunya virus (strain S27-African prototype) (CHIKV)), Q8JUX6”, the Km in data set [1] came to 9.7 µM; in data set [2] it was 3.5 µM; in [3], 4.9 µM; in [4], 5.4 µM. Also, the Vmax in data set [5] turned out to be 1.58; in data set [6], 0.83; in data set [7], 0.71; in data set [8] it was 0.87; in data set [9], 1.57; in data set [10], 0.84. Further, the Vmax in data set [11] stood at 0.76; in data set [12], 0.73.
